Source: PMC8602292, “Acyl carrier protein promotes MukBEF action in Escherichia coli chromosome organization-segregation” (Nature Communications, 2021)

T1: MukB^KRK (K1114E, R1122E and K1125E) (Escherichia coli, UniProt P22523 1-1486, K1114E | R1122E | K1125E)
T1 construct: E. coli MukB, triple charge-reversed mutant; source: E. coli FL01 (mukB 3xFLAG C3013I), purified (TALON, HiTrap Heparin, Superdex 200); not shown: His tag, C-terminal, kept
T1 sequence (looked up): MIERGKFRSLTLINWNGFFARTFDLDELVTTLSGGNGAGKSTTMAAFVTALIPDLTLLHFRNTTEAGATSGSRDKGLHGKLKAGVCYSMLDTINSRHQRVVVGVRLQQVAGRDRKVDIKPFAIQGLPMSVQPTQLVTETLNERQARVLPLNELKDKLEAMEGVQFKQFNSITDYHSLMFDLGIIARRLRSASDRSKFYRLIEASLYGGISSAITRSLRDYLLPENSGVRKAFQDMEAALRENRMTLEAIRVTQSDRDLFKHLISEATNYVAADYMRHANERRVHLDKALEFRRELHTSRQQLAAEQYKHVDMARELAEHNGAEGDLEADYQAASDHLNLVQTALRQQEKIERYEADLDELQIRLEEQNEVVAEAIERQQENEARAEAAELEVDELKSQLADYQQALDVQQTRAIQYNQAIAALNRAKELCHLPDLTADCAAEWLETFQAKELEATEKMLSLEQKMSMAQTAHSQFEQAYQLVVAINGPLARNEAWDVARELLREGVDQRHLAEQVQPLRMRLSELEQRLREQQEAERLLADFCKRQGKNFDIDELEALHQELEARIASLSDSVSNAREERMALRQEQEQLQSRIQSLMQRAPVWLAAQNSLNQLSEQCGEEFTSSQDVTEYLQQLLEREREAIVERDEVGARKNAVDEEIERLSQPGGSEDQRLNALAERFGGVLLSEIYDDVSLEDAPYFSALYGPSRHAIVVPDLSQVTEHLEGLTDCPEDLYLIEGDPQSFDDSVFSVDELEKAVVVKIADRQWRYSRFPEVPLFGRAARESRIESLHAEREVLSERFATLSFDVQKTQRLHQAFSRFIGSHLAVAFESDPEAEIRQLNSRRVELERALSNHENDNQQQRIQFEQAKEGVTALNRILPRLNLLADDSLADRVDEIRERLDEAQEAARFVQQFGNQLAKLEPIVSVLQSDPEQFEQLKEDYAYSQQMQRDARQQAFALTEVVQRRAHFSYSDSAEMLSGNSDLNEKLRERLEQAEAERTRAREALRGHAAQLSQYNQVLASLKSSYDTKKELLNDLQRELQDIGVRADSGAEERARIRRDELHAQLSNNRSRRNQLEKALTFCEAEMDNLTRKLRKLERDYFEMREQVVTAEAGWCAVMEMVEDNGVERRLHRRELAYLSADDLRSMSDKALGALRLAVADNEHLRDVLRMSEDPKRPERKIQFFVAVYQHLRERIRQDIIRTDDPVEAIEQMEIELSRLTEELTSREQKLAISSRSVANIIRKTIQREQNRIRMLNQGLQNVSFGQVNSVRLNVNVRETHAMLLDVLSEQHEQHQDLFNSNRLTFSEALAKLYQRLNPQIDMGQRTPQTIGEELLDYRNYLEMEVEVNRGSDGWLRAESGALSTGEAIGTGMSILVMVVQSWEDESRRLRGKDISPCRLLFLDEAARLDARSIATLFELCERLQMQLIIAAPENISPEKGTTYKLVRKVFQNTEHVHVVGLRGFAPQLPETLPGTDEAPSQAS


Target: T1, MukB^KRK (K1114E, R1122E and K1125E)
Assay: native gel or EMSA; BN-PAGE; MukB or MukB^HN (0-4.5 μM) with MukF (1.5 μM), MukE (3 μM) and AcpP as indicated or none; 1 mM DTT, 1 mM MgCl2, 30 min at 22 °C; 3-12% native Bis-Tris gels; AMPPNP in some samples
Details: both partners purified

binding result | Binder
binds | MukE (MukE-His) (natural protein, Escherichia coli, UniProt P22524 1-234, looked up, MukE, the KITE protein of Escherichia coli MukBEF; The end of the tag is read from the printed name 'MukE-His'; also called KITE protein MukE; source: E. coli C3013I (NEB), pET vector, purified (TALON, HiTrap DEAE FF, Superdex 200)) MSSTNIEQVMPVKLAQALANPLFPALDSALRSGRHIGLDELDNHAFLMDFQEYLEEFYARYNVELIRAPEGFFYLRPRSTTLIPRSVLSELDMMVGKILCYLYLSPERLANEGIFTQQELYDELLTLADEAKLLKLVNNRSTGSDVDRQKLQEKVRSSLNRLRRLGMVWFMGHDSSKFRITESVFRFGADVRAGDDPREAQRRLIRDGEAMPIENHLQLNDETEENQPDSGEEE
binds | MukF (His-MukF) (natural protein, Escherichia coli, UniProt P60293 1-440, looked up, MukF, the kleisin of Escherichia coli MukBEF; The end of the tag is read from the printed name 'His-MukF'; also called kleisin MukF; source: E. coli C3013I (NEB), pET vector, purified (TALON, HiTrap DEAE FF, Superdex 200)) MSEFSQTVPELVAWARKNDFSISLPVDRLSFLLAVATLNGERLDGEMSEGELVDAFRHVSDAFEQTSETIGVRANNAINDMVRQRLLNRFTSEQAEGNAIYRLTPLGIGITDYYIRQREFSTLRLSMQLSIVAGELKRAADAAEEGGDEFHWHRNVYAPLKYSVAEIFDSIDLTQRLMDEQQQQVKDDIAQLLNKDWRAAISSCELLLSETSGTLRELQDTLEAAGDKLQANLLRIQDATMTHDDLHFVDRLVFDLQSKLDRIISWGQQSIDLWIGYDRHVHKFIRTAIDMDKNRVFAQRLRQSVQTYFDEPWALTYANADRLLDMRDEEMALRDEEVTGELPEDLEYEEFNEIREQLAAIIEEQLAVYKTRQVPLDLGLVVREYLSQYPRARHFDVARIVIDQAVRLGVAQADFTGLPAKWQPINDYGAKVQAHVIDKY
